Results taken from article PMC7806870.

Legend:
GLP-1 receptor [1] = biological target: GLP-1 receptor (UniProt P43220)
GLP-1 receptor [2] = biological target: GLP-1 receptor (UniProt P43220); remark: listed apart in the source
[3] = biological target: extracellular domain of the human β-klotho protein (human) (UniProt Q86Z14); assay: BLI
[4] = biological target: extracellular domain of the human β-klotho protein (human) (UniProt Q86Z14)
[5] = biological target: extracellular domain of the human β-klotho protein (human) (UniProt Q86Z14); remark: listed apart in the source

extracellular domain of the human β-klotho protein (human), sequence (Q86Z14 1-996): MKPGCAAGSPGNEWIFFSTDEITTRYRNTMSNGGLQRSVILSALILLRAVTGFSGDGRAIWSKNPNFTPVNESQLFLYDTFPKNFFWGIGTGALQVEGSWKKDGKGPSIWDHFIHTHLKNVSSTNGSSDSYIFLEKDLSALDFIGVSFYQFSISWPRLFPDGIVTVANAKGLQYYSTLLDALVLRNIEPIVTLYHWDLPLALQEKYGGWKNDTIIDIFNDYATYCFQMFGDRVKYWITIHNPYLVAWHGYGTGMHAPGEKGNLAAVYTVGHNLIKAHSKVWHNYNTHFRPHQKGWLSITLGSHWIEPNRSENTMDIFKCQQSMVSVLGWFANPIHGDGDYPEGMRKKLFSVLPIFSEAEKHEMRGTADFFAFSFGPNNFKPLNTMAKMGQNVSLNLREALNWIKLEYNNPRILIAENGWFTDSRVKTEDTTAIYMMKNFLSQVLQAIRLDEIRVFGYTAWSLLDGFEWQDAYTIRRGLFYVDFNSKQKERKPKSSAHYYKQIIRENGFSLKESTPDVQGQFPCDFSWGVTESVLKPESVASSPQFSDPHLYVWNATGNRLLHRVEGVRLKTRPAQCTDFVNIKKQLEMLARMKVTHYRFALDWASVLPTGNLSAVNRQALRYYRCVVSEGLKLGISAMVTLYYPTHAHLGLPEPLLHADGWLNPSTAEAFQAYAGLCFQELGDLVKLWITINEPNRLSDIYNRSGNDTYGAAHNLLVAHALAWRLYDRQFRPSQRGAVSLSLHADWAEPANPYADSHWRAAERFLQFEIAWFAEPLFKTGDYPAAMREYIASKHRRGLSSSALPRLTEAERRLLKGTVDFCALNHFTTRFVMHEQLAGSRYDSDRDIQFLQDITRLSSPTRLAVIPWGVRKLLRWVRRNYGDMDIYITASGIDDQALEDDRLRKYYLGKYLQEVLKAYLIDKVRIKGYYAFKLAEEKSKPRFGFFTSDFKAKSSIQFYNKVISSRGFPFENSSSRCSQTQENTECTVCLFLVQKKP
GLP-1 receptor, sequence (P43220 24-463): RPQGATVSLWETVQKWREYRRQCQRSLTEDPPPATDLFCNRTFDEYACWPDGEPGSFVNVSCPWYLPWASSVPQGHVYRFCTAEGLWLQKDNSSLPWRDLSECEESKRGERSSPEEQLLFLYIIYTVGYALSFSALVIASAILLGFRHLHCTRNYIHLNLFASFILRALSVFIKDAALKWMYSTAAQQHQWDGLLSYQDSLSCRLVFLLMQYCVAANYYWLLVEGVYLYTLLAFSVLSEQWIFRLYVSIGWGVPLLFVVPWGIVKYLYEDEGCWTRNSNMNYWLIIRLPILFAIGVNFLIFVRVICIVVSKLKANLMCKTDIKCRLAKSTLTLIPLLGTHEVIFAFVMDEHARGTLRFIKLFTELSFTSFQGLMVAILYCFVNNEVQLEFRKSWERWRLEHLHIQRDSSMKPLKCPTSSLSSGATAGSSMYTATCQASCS

| EC50 of cAMP production in HEK293 cells expressing GLP-1R alone (Fig. 2b) (GLP-1 receptor [1]) [nM] | EC50 of cAMP in HEK293 cells expressing both GLP-1R and β-Klotho (Fig. 2c) (GLP-1 receptor [2]) [nM] | Kd [3] [nM] | EC50 of ERK1/2 phosphorylation in HEK293 cells expressing β-Klotho (Fig. 2a) [4] [nM] | EC50 of cAMP in HEK293 cells expressing both GLP-1R and β-Klotho (Fig. 2c) [5] [nM] | Substance |
| --- | --- | --- | --- | --- | --- |
| 0.06 | 0.21 | – | – | – | Dulaglutide (Fc fusion) |
| – | – | 0.767 | – | – | Fc-FGF21 (L98R, P171A) (Fc fusion) |
| – | – | 0.59 | – | – | Fc-FGF21 (L98R, S167H, P171A) (Fc fusion) |
| – | – | 0.316 | 1.13 | 305 | Fc-FGF21 (L98R, S167H, P171A, R175L) (Fc fusion) |
| – | – | 0.24 | – | – | GLP-1-Fc-FGF21 (L98R, S167H, P171A) (Fc fusion) |
| 0.15 | – | 0.0924 | 1.52 | – | GLP-1-Fc-FGF21 (L98R, S167H, P171A, R175L) (Fc fusion) |
